Results: article PMC10397247
Where two headings read alike, the source gives them in different places. Values belong to the binder of their own block, whether it stands above or below them.

Key:
4H3410-AA = target: T1, 4H3410-AA; test: two-hybrid library CCmax;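 note: natural log of median RNA to DNA barcode read ratio; higher means stronger binding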
T1 chain: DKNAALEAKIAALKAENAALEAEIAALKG

4H3590-AA = target: T2, 4H3590-AA; test: two-hybrid library CCmax; details: mean of both orientations;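 note: natural log of median RNA to DNA barcode read ratio; higher means stronger binding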
T2 chain: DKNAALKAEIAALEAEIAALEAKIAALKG

4H3697-AA = target: T3, 4H3697-AA; test: two-hybrid library CCmax; details: mean of both orientations;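 note: natural log of median RNA to DNA barcode read ratio; higher means stronger binding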
T3 chain: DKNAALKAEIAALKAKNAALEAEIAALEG

4H3753-AA = target: T4, 4H3753-AA; test: two-hybrid library CCmax; details: mean of both orientations;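 note: natural log of median RNA to DNA barcode read ratio; higher means stronger binding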
T4 chain: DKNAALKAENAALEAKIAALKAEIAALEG

4H3865-AA = target: T5, 4H3865-AA; test: two-hybrid library CCmax; details: mean of both orientations;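 note: natural log of median RNA to DNA barcode read ratio; higher means stronger binding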
T5 chain: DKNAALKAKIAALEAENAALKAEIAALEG

4H458-AA = target: T6, 4H458-AA; test: two-hybrid library CCmax; details: mean of both orientations;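 note: natural log of median RNA to DNA barcode read ratio; higher means stronger binding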
T6 chain: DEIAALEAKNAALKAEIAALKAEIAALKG

4H485-AA = target: T7, 4H485-AA; test: two-hybrid library CCmax; details: mean of both orientations
T7 chain: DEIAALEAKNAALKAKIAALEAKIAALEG

4H536-AA = target: T8, 4H536-AA; test: two-hybrid library CCmax; details: mean of both orientations
T8 chain: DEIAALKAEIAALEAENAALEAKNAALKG

4H570-AA = target: T9, 4H570-AA; test: two-hybrid library CCmax; details: mean of both orientations
T9 chain: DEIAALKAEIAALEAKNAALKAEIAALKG

4H629-AA = target: T10, 4H629-AA; test: two-hybrid library CCmax; details: mean of both orientations
T10 chain: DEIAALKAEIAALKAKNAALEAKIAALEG

4H710-AA = target: T11, 4H710-AA; test: two-hybrid library CCmax; details: mean of both orientations
T11 chain: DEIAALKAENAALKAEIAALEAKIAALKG

4H745-AA = target: T12, 4H745-AA; test: two-hybrid library CCmax; details: mean of both orientations
T12 chain: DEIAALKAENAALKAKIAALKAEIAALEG

4H797-AA = target: T13, 4H797-AA; test: two-hybrid library CCmax; details: mean of both orientations
T13 chain: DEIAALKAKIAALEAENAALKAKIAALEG

4H850-AA = target: T14, 4H850-AA; test: two-hybrid library CCmax; details: mean of both orientations
T14 chain: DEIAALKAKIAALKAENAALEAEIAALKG

4H891-AA = target: T15, 4H891-AA; test: two-hybrid library CCmax; details: mean of both orientations
T15 chain: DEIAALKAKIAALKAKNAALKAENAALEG

4H909-AA = target: T16, 4H909-AA; test: two-hybrid library CCmax; details: mean of both orientations
T16 chain: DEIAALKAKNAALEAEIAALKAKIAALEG

4H930-AA = target: T17, 4H930-AA; test: two-hybrid library CCmax; details: mean of both orientations
T17 chain: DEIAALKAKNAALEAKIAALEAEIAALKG

4H94-AA = target: T18, 4H94-AA; test: two-hybrid library CCmax; details: mean of both orientations
T18 chain: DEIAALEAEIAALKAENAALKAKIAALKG

4H3655-AA = target: T19, 4H3655-AA; test: two-hybrid library CCmax
T19 chain: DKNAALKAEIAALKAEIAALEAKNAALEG

4H3844-AA = target: T20, 4H3844-AA; test: two-hybrid library CCmax; details: mean of both orientations
T20 chain: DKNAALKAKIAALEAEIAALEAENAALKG

4H3921-AA = target: T21, 4H3921-AA; test: two-hybrid library CCmax; details: mean of both orientations
T21 chain: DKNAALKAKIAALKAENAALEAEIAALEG

4H429-AA = target: T22, 4H429-AA; test: two-hybrid library CCmax; details: mean of both orientations
T22 chain: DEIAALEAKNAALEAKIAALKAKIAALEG

4H454-AA = target: T23, 4H454-AA; test: two-hybrid library CCmax; details: mean of both orientations
T23 chain: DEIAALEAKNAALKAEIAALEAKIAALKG

4H48-AA = target: T24, 4H48-AA; test: two-hybrid library CCmax; details: mean of both orientations
T24 chain: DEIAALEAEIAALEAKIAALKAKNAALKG

4H566-AA = target: T25, 4H566-AA; test: two-hybrid library CCmax; details: mean of both orientations
T25 chain: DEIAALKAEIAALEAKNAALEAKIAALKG

4H605-AA = target: T26, 4H605-AA; test: two-hybrid library CCmax; details: mean of both orientations
T26 chain: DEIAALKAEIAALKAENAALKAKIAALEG

4H678-AA = target: T27, 4H678-AA; test: two-hybrid library CCmax; details: mean of both orientations
T27 chain: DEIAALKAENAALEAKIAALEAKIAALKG

4H717-AA = target: T28, 4H717-AA; test: two-hybrid library CCmax; details: mean of both orientations
T28 chain: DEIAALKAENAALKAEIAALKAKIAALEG

4H780-AA = target: T29, 4H780-AA; test: two-hybrid library CCmax; details: mean of both orientations
T29 chain: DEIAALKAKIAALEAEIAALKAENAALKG

4H794-AA = target: T30, 4H794-AA; test: two-hybrid library CCmax; details: mean of both orientations
T30 chain: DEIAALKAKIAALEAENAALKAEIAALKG

4H881-AA = target: T31, 4H881-AA; test: two-hybrid library CCmax; details: mean of both orientations
T31 chain: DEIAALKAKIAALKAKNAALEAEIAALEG

4H906-AA = target: T32, 4H906-AA; test: two-hybrid library CCmax; details: mean of both orientations
T32 chain: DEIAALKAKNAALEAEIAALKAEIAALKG

4H993-AA = target: T33, 4H993-AA; test: two-hybrid library CCmax; details: mean of both orientations
T33 chain: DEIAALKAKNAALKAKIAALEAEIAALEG

4H656-AA = target: T34, 4H656-AA; test: two-hybrid library CCmax
T34 chain: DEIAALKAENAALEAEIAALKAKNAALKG

4H675-AA = target: T35, 4H675-AA; test: two-hybrid library CCmax
T35 chain: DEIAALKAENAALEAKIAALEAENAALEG

4H971-AA = target: T36, 4H971-AA; test: two-hybrid library CCmax; details: mean of both orientations
T36 chain: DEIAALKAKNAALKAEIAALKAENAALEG

4H697-AA = target: T37, 4H697-AA; test: two-hybrid library CCmax
T37 chain: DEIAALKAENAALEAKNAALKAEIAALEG

4H982-AA = target: T38, 4H982-AA; test: two-hybrid library CCmax
T38 chain: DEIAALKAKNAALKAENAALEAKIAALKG

4H906-bH = target: T39, 4H906-bH; test: two-hybrid library CCNG1
T39 chain: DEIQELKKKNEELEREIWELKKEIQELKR

interaction score (4H3410-AA): 0.0832 | interaction score (4H3590-AA): -0.698 | interaction score (4H3697-AA): -0.574 | interaction score (4H3753-AA): -1.39 | interaction score (4H3865-AA): 0.873 | interaction score (4H458-AA): 1.79 | interaction score (4H485-AA): -0.0439 | interaction score (4H536-AA): -1.39 | interaction score (4H570-AA): 2.09 | interaction score (4H629-AA): -1.53 | interaction score (4H710-AA): -1.13 | interaction score (4H745-AA): -0.581 | interaction score (4H797-AA): -1.22 | interaction score (4H850-AA): -0.83 | interaction score (4H891-AA): -1.42 | interaction score (4H909-AA): -1.45 | interaction score (4H930-AA): -1.36 | interaction score (4H94-AA): 1.3
Binder: DKNAALEAKIAALKAENAALEAEIAALKG [4H3410-AA]

interaction score (4H3655-AA): 0.24 | interaction score (4H3844-AA): -1.26 | interaction score (4H3921-AA): -1.55 | interaction score (4H429-AA): -1.13 | interaction score (4H454-AA): -0.827 | interaction score (4H48-AA): 0.736 | interaction score (4H566-AA): -1.03 | interaction score (4H605-AA): -1.25 | interaction score (4H678-AA): -0.956 | interaction score (4H717-AA): -1.27 | interaction score (4H780-AA): -1.83 | interaction score (4H794-AA): -1.61 | interaction score (4H881-AA): -0.202 | interaction score (4H906-AA): -1.03 | interaction score (4H993-AA): -1.32
Binder: DKNAALKAEIAALKAEIAALEAKNAALEG [4H3655-AA]

interaction score (4H656-AA): 0.334 | interaction score (4H675-AA; mean of both orientations): 0.797 | interaction score (4H971-AA): 1.93
Binder: DEIAALKAENAALEAEIAALKAKNAALKG [4H656-AA]

interaction score (4H675-AA): -1.72 | interaction score (4H971-AA): 0.0439
Binder: DEIAALKAENAALEAKIAALEAENAALEG [4H675-AA]

interaction score (4H697-AA): -1.15 | interaction score (4H982-AA): 2.27
Binder: DEIAALKAENAALEAKNAALKAEIAALEG [4H697-AA]

interaction score (4H906-bH): 0.905
Binder: DEIQELKKKNEELEREIWELKKEIQELKR [4H906-bH]

interaction score (4H982-AA): 0.123
Binder: DEIAALKAKNAALKAENAALEAKIAALKG [4H982-AA]
